The values below come from the supplement of paper PMC7125110.

± gives the standard error. Fewer inactive variants are shown than the library holds.

B1: glmS ribozyme (parent)
chain: AUAAAAGCGCCAGAACUACAGAAAUGUAGUUGACGAGGAGGAGGUUUAUCGAAUUUUCGGCGGAUGCCUCCAAA

This series covers variants of B1. Description: self-cleavage kobs at 10000 uM GlcN6P; higher = faster cleavage; RNA array. Conditions: with glucosamine-6-phosphate. In a few lines: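 Glucosamine-6-phosphate, from 40 μM to 10 mM in HEPES/KCl/Mg(OAc)2 buffer, was flowed over sequenced MiSeq chips carrying barcoded ribozyme variants transcribed in situ by E. coli RNA polymerase. A hybridised Cy3 probe tracked the variants at 37 °C as tiles were imaged over ~14 h. kobs, kcat and KM were obtained by fitting normalised per-tile medians to exponential decays and then applying weighted Michaelis–Menten fits across concentrations.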
On to A14U G43U G51A, for which the “self-cleavage kobs at 10000 uM GlcN6P” value is below 1e-05 s⁻¹. Turning to A15C A36C C67A, the “self-cleavage kobs at 10000 uM GlcN6P” value was below 1e-05 s⁻¹.

G7A A39U G43U: the “self-cleavage kobs at 10000 uM GlcN6P” value was below 1e-05 s⁻¹. The same measure for C10U G13C G63U: below 1e-05 s⁻¹; for C10A G37C G51A: below 1e-05 s⁻¹. The same measure for U2C C11U G59U: 0.000103 ± 2.1e-05 s⁻¹; for G41A U56C: 3.52e-05 ± 1.7e-05 s⁻¹; for G32U U57G: 5.4e-05 ± 1.4e-05 s⁻¹. The same measure for A33C U46C: 4.16e-05 ± 1.7e-05 s⁻¹. In the case of U45G C58A G66U, the “self-cleavage kobs at 10000 uM GlcN6P” value stood at 8.19e-05 ± 1.6e-05 s⁻¹. Consider U49A C50G G51A C61A G62U, for which the “self-cleavage kobs at 10000 uM GlcN6P” value was below 1e-05 s⁻¹. Consider C10U A36C U69G, for which the “self-cleavage kobs at 10000 uM GlcN6P” value came out at 0.000116 ± 2.9e-05 s⁻¹.

A64G C70A: the “self-cleavage kobs at 10000 uM GlcN6P” value was 3.24e-05 ± 9.8e-06 s⁻¹.

With C11G G60U U69G, the “self-cleavage kobs at 10000 uM GlcN6P” value is below 1e-05 s⁻¹. As for U46G G62A C71A, the “self-cleavage kobs at 10000 uM GlcN6P” value was below 1e-05 s⁻¹. The same measure for G7C G41A C61U: below 1e-05 s⁻¹. The same measure for C10U U30A C68U: below 1e-05 s⁻¹. Take C8G G51U G59U: the “self-cleavage kobs at 10000 uM GlcN6P” value is below 1e-05 s⁻¹. The same measure for G44C C50U U56A: below 1e-05 s⁻¹. For the variant C16A G35C A64C, the “self-cleavage kobs at 10000 uM GlcN6P” value is below 1e-05 s⁻¹.

As for G59A C68A U69A, the “self-cleavage kobs at 10000 uM GlcN6P” value is below 1e-05 s⁻¹. For the variant G35C A48G G59U G60A, the “self-cleavage kobs at 10000 uM GlcN6P” value was below 1e-05 s⁻¹.

G29U U55A U69A: the “self-cleavage kobs at 10000 uM GlcN6P” value was 4.12e-05 ± 1.6e-05 s⁻¹.

Regarding U30G G37U A52U G59A, the “self-cleavage kobs at 10000 uM GlcN6P” value was below 1e-05 s⁻¹. The same measure for A18C G38A C50U C58U G59U: below 1e-05 s⁻¹; for A12C U30A U47A G51U: below 1e-05 s⁻¹.

In the case of A14C A33G C58G U65C, the “self-cleavage kobs at 10000 uM GlcN6P” value is below 1e-05 s⁻¹. Take A14U U55C C67A C70A C71U: the “self-cleavage kobs at 10000 uM GlcN6P” value is below 1e-05 s⁻¹. On to A12C C68G, for which the “self-cleavage kobs at 10000 uM GlcN6P” value came to 2.93e-05 ± 8.5e-06 s⁻¹. Regarding A14U C50G G62A A64G, the “self-cleavage kobs at 10000 uM GlcN6P” value came out at 0.000115 ± 2.4e-05 s⁻¹.

Turning to A33U A53C G62U, the “self-cleavage kobs at 10000 uM GlcN6P” value was below 1e-05 s⁻¹. The same measure for C11U U69C: 0.000482 ± 9.2e-05 s⁻¹; for U55A A64U C71A: 4.3e-05 ± 1.9e-05 s⁻¹; for A6C A15U C34A A39G U65A: below 1e-05 s⁻¹.

As to A14U A39C U65C, the “self-cleavage kobs at 10000 uM GlcN6P” value was found to be 6.04e-05 ± 1.6e-05 s⁻¹. A12U C16U A42G: the “self-cleavage kobs at 10000 uM GlcN6P” value stood at 0.0803 ± 0.038 s⁻¹.

In the case of C8G A15C G40A G41U C50U C70G, the “self-cleavage kobs at 10000 uM GlcN6P” value was below 1e-05 s⁻¹.

Consider G7A A48G U65A, for which the “self-cleavage kobs at 10000 uM GlcN6P” value was below 1e-05 s⁻¹. Consider G13A G29A G63U, for which the “self-cleavage kobs at 10000 uM GlcN6P” value was below 1e-05 s⁻¹. In the case of A39G U57A C68U, the “self-cleavage kobs at 10000 uM GlcN6P” value was found to be 0.000176 ± 4e-05 s⁻¹. The same measure for C16A G35U G60U: below 1e-05 s⁻¹. The same measure for A14U U30G U55G C70A: 3.35e-05 ± 1.5e-05 s⁻¹; for A42U A52G U57A G63C: below 1e-05 s⁻¹. Turning to C16U U45C U55G, the “self-cleavage kobs at 10000 uM GlcN6P” value was 0.00144 ± 0.0003 s⁻¹.

As to U30C G40A A53C C58U, the “self-cleavage kobs at 10000 uM GlcN6P” value was below 1e-05 s⁻¹. The same measure for G44A U45A C58G: below 1e-05 s⁻¹; for G13A C50G G66U: 6.48e-05 ± 2.1e-05 s⁻¹. The same measure for U31C U47C C70U: 0.000673 ± 0.00014 s⁻¹; for G7C C50G C61A: 4e-05 ± 1.9e-05 s⁻¹; for U30G U45A C71G: 0.000315 ± 5.9e-05 s⁻¹. The same measure for G37U G38A C67U: below 1e-05 s⁻¹; for C8U A12C A15U G38U A64U: below 1e-05 s⁻¹; for C8U C16A A39C C58U A64G C67G: below 1e-05 s⁻¹. Take G13A G43U U45G: the “self-cleavage kobs at 10000 uM GlcN6P” value amounted to 6.53e-05 ± 2.3e-05 s⁻¹.

As for U31C U45A A52G C68U, the “self-cleavage kobs at 10000 uM GlcN6P” value was 0.000129 ± 3.8e-05 s⁻¹. The same measure for G29U U46A U54C: 7.78e-05 ± 2e-05 s⁻¹. Regarding C10U A33G G35C U45G C68U, the “self-cleavage kobs at 10000 uM GlcN6P” value was below 1e-05 s⁻¹. Turning to A39U U46A A53G, the “self-cleavage kobs at 10000 uM GlcN6P” value was 0.00108 ± 0.00026 s⁻¹.

Turning to A42G U55A C68G, the “self-cleavage kobs at 10000 uM GlcN6P” value was 7.44e-05 ± 2e-05 s⁻¹. As to A12G A14C U31C U47G A52G G59A G60U, the “self-cleavage kobs at 10000 uM GlcN6P” value is below 1e-05 s⁻¹. The same measure for G32U A39G U69A: 0.000121 ± 3.2e-05 s⁻¹; for A12C G13C G32A A39U: 5.7e-05 ± 1e-05 s⁻¹; for A14C A48C G59U: below 1e-05 s⁻¹.

As to A6U A53C, the “self-cleavage kobs at 10000 uM GlcN6P” value came to 5.75e-05 ± 9.2e-06 s⁻¹.
